Data: US20200362034A1 (KINDRED BIOSCIENCES, published 2020)

B1: GLP1-G8_I_VARfeIgG2 (Fc fusion)
chain: HGEGTFTSDVSSYLEGQAAKEFIAWLVKGGGGSGGGGSGGGGSGGGGSPKTASTIESKTGECPKCPVPEIPGAPSVFIFPPKPKDTLSISRTPEVTCLVVDLGPDDSNVQITWFVDNTEMHTAKTRPREEQFNSTYRVVSVLPILHQDWLKGKEFKCKVNSKSLPSAMERTISKAKGQPHEPQVYVLPPTQEELSENKVSVTCLIKGFHPPDIAVEWEITGQPEPENNYQTTPPQLDSDGTYFLYSRLSVDRSHWQRGNTYTCSVSHEALHSHHTQKSLTQSPGK
notes: Formula I contiguous polypeptide made in CHO cells; The Fc chains pair through hinge disulfides; also called GLP1 MB variant; GLP1-B
B2: GLP1-G8/GLP1-2G_III_VARfeIgG2 (Fc fusion)
chain: HGEGTFTSDVSSYLEGQAAKEFIAWLVKGGGGSGGGGSGGGGSGGGGSPKTASTIESKTGECPKCPVPEIPGAPSVFIFPPKPKDTLSISRTPEVTCLVVDLGPDDSNVQITWFVDNTEMHTAKTRPREEQFNSTYRVVSVLPILHQDWLKGKEFKCKVNSKSLPSAMERTISKAKGQPHEPQVYVLPPTQEELSENKVSVTCLIKGFHPPDIAVEWEITGQPEPENNYQTTPPQLDSDGTYFLYSRLSVDRSHWQRGNTYTCSVSHEALHSHHTQKSLTQSPGKGGGGSGGGGHAEGTFTSDVSSYLEGQAAKEFIAWLVKGGG

Experiments:
[1] = target: FeGLP1R-N-huFc_PolyHis (feline, biotinylated (sites not given) in the Octet assay); test: biolayer interferometry (Octet); biotinylated FeGLP1R-N-huFc_PolyHis on streptavidin tips; 1:1 fit
FeGLP1R-N-huFc_PolyHis (feline, biotinylated (sites not given) in the Octet assay), sequence (chain, as listed by the source): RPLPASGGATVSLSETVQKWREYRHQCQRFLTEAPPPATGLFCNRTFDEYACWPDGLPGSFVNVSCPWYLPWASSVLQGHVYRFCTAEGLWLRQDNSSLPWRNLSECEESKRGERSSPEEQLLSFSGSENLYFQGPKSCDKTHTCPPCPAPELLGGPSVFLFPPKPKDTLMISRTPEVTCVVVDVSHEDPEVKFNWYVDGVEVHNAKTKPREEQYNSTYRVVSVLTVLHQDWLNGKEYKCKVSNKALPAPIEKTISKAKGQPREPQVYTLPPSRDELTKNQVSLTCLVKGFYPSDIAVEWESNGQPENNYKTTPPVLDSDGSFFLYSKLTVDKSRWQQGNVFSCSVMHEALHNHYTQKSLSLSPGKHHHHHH
Protocol: Briefly, FeGLP1R-N-huFc_PolyHis was biotinylated, the free unreacted biotin was removed, and the biotinylated protein was captured to streptavidin sensor tips. […] Dissociation was monitored for 600 seconds. A buffer only blank curve was subtracted to correct for any drift. […] The buffer for dilutions and all binding steps was: 20 mM phosphate, 150 mM NaCl, pH 7.2.

[2] = target: human glucagon ligand peptide-1 receptor (GLP1R) (human, UniProt P43220 24-463); test: cell-based or functional assay

Row | Binder | Kd [1] | EC 50 (nM), cAMP Hunter bioassay on CHO-K1 cells overexpressing human GLP1R [2]
1 | B1 | 8 to 16 nM | 0.0281 nM
2 | B2 |  | 0.0175 nM
